From US20230227514A1, “BETA-ARRESTIN COMPOSITIONS AND ASSOCIATED METHODS” (Duke University, priority 2020, published 2023) come the findings set out here.

Holding throughout (type): cell-based
Assay [1] has as its target T1, β2AR (Homo sapiens, UniProt P07550).
T1 construct: Flag (N); expressed in transfected cells
Description: BRET assay of βarrestin1 construct recruitment to β2AR. As to conditions: with or without isoproterenol stimulation. The source says: The bar graph summarizes the BRET ratio corresponding to the recruitment of βarrestin1 or βarrestin1-SUMO1 fusion protein to the β2AR with or without isoproterenol (β2AR agonist) stimulation, as described in Example 1 herein.
(§1) BRET assays. […] Titration assays were first completed, which allowed determination of the specificity of association among different interaction partners. See Nagi and Shenoy. 2019, supra; Gales et al. 2005. Nature methods 2:177-184; Nagi et al. 2015. Cellular and molecular life sciences: CMLS 72:3543-3557; Audet and Pineyro. 2011. Methods in molecular biology 756:149-163; and Rebois et al. 2006. Journal of cell science 119:2807-2818. […] BRET readings were acquired using Synergy Neo2 plate reader and obtained 5 min after manual addition of Rluc substrate, coelenterazine h (Promega) to a final concentration of 5 μM.
(§2) The BRET signal generated was determined by calculating the ratio of light emitted by YFP (520-550 nm) over the light emitted by Rluc (440-480 nm). These values were then corrected by subtracting the background signal (detected when the Rluc-tagged construct was expressed without acceptor) from the BRET signal detected in cells co-expressing both donor and acceptor constructs. Agonist-induced BRET values were calculated by subtracting net BRET values of non-stimulated conditions from net BRET values corresponding to the stimulated conditions.

The target of assay [2] is T1, β2AR. Description: Confocal trafficking and colocalization with β2AR. As to the method:
(§3) Immunostaining and confocal microscopy. […] Twenty-four hours post-transfection, cells were serum-starved for 4 h, and either left untreated or treated with respective agonists for the indicated times in the Figure descriptions. After stimulation, cells were fixed with 5% formaldehyde diluted in phosphate-buffered saline (PBS), permeabilized with 0.1% Triton in PBS containing 2% bovine serum albumin for 20 min and incubated at room temperature with appropriate primary antibody. The next day, cells were washed three times with PBS and incubated with Alexa594 conjugated secondary antibody for 1 h, followed by repeated washes using PBS. Confocal images were acquired using Zeiss LSM510 laser-scanning microscope using multitrack sequential with excitation (488 and 568 nm) and emission (BP 505-550 nm and LP 585 nm) filter sets. Images (1024×1024 pixels) were collected using either a 63× or 100× oil immersion lens. Images were processed for Figure presentation using Adobe Photoshop software, and any increase or decrease of brightness/contrast was applied to the entire image. The nuclear rim localization of YFP-βarrestin2-SUMO1 is readily visualized in cells with low to moderate expression of YFP-protein. In cells with high expression, this localization is present, and can be discerned by enlarging sections of the nuclear rim.
For βarrestin2-SUMO1, plasma membrane translocation was detected upon β2AR agonist activation, and, intriguingly, βarrestin2-SUMO1 was detected in endocytic vesicles. […] Confocal images were taken of cells stably expressing the β2AR and transiently expressing YFP-SUMO1 (data not shown). In both quiescent and agonist-treated cells, the SUMO1 protein remained in the nucleus. […] See Shenoy et al. 2007, supra; Shenoy and Lefkowitz. 2005. J Biol Chem 280:15315-15324; and Shenoy and Lefkowitz. 2003. J Biol Chem 278:14498-14506. Therefore, the endosomal trafficking was compared for βarrestin2-ubiquitin (βarrestin2-Ub) fusion protein and internalized β2ARs. […]

In the next assay the target is T2, glucagon receptor (GCGR) (Homo sapiens, UniProt P47871).
T2 construct: expressed in transfected cells; host or cells: HEK-293T
T2 sequence (P47871 26-477, species assumed): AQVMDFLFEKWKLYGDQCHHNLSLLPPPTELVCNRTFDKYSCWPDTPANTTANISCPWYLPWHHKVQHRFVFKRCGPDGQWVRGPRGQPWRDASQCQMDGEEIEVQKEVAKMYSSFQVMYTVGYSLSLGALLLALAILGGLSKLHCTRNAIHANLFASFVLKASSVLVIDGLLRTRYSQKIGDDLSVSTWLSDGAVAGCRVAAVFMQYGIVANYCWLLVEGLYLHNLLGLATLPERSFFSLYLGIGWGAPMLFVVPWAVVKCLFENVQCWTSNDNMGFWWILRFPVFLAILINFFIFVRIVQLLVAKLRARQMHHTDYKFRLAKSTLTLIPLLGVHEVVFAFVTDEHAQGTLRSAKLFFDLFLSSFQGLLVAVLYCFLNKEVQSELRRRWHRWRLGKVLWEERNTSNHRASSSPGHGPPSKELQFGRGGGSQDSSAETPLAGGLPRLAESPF
Description: BRET assay of βarrestin1 construct recruitment to GCGR. Particulars: GCGR activation with glucagon.
Text: The bar graph summarizes the BRET ratio corresponding to the recruitment of βarrestin1 or βarrestin1-SUMO1 fusion protein to the GCGR with or without glucagon (GCGR agonist) stimulation, as described in Example 1 herein.
as §1, §2
(In general: In BRET a luciferase serves as donor, and the signal depends on an acceptor being close.)

The target of assay [3] is T3, D1 dopamine receptor (D1R) (Homo sapiens, UniProt P21728).
T3 construct: expressed in transfected cells
T3 sequence (P21728 whole entry): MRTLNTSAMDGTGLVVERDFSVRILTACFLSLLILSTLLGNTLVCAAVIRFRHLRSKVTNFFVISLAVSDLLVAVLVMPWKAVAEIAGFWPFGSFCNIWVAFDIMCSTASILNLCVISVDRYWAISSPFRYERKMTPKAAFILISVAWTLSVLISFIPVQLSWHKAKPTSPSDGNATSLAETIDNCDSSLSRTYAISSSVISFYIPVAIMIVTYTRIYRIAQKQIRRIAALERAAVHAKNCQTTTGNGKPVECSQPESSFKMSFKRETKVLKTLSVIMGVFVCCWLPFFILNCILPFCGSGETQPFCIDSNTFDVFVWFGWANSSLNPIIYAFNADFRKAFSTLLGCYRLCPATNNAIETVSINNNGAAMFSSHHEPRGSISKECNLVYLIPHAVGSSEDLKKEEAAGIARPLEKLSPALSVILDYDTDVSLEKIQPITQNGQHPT
The experiment in a line: Confocal trafficking and colocalization with D1R. Particulars: HEK-293 cells with stable D1R expression; dopamine 15 minutes. As to the method:
as §3, with “rim. […]” for “rim.”

The target in assay [4] is T4, RanGAP1 (Homo sapiens, UniProt P46060).
T4 construct: endogenous in cells; host or cells: HEK-293T / HEK-293
T4 sequence (P46060 2-587 limits assumed): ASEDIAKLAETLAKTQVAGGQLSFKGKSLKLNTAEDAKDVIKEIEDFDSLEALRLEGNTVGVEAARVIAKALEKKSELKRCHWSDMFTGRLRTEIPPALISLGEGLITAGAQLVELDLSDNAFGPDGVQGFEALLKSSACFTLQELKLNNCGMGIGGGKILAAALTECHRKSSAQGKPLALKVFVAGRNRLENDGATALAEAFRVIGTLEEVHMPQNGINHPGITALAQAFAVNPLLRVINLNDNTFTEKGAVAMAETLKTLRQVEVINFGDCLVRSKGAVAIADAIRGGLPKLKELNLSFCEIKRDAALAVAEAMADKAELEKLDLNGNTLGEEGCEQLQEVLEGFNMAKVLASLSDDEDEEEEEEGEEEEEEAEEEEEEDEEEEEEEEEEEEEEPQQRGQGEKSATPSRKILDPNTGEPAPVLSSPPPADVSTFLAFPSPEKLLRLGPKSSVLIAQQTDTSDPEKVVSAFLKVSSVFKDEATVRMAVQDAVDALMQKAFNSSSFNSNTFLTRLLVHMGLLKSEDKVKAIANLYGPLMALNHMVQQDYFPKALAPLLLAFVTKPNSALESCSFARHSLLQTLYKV
T4 sequence (P63165 2-97 partner limits assumed): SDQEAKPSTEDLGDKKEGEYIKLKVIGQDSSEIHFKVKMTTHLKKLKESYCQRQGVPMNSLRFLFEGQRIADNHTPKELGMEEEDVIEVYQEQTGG
The experiment in a line: Confocal colocalization with endogenous RanGAP1 at the nuclear envelope. As to conditions: HEK-293 cells with or without β2AR agonist stimulation. As to the method:
as §3, with “rim. […]” for “rim.”

For assay [5], the system named is RanGAP1. The experiment in a line: Western blotting of RanGAP1 levels on βarrestin2 overexpression. As to conditions: RanGAP1/GAPDH ratio, Western blot. The source says:
HEK-293T cells stably transfected with β2AR were transfected with vector or YFP-βarrestin2. […] The unmodified RanGAP1 band (70 kDa) was divided by cognate GAPDH and plotted as a ratio. The bar graph (bottom panel) summarizes values from three independent experiments. *p=0.006, unpaired t test.
In these experiments, SUMO1 by itself is not localized at the nuclear membrane in HEK-293 cells; only βarrestin2-SUMO1 is localized at the nuclear membrane. […] It is well established that RanGAP1 is expressed in cells predominantly in the SUMOylated state. This is illustrated in immunoblots (FIGS. 9-11), in which the RanGAP1 antibody detects two bands, SUMO-RanGAP1 (approximately 90 kDa) and RanGAP1 (approximately 70 kDa).
(Immunoblotting shows a protein as a band on a membrane.)

Another assay has as its target T5, D2R (Homo sapiens, UniProt P14416).
T5 construct: HA (N); expressed in transfected cells
The experiment in a line: Confocal trafficking and colocalization with D2R. Particulars: HEK-293 cells stably expressing D2R. Here is the method: as §3, with “rim. […]” for “rim.”

The target of the next assay is T6, SUMO1 (Homo sapiens, UniProt P63165).
T6 construct: His6 (N); expressed in transfected cells; host or cells: HEK-293 (transient)
T6 sequence (P63165 1-97 limits assumed): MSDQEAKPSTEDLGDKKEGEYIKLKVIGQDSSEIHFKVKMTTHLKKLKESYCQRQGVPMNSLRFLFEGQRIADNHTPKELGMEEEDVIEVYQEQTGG
The experiment in a line: SUMOylation of FLAG-βarrestin2 constructs co-expressed with His6-SUMO1 (FLAG IP, immunoblot). As to conditions: overexpressed in HEK-293 cells along with His-SUMO1. The source says:
HEK-293 cells were transfected with vector, FLAG-βarrestin2 (WT) or FLAG-βarrestin2-K296R along with His6-SUMO1.
SUMOylation is targeted to a canonical protein sequence (Ψ-K-X-D/E), where Ψ is an aliphatic amino acid, K is the target site for the covalent modification by SUMO, X is any amino acid and is followed by an acidic residue. See Sampson et al. 2001. J Biol Chem 276:21664-21669. […] See Wyatt et al. 2011 and Xiao et al. 2015, both supra.

T5 sequence (P14416 whole entry): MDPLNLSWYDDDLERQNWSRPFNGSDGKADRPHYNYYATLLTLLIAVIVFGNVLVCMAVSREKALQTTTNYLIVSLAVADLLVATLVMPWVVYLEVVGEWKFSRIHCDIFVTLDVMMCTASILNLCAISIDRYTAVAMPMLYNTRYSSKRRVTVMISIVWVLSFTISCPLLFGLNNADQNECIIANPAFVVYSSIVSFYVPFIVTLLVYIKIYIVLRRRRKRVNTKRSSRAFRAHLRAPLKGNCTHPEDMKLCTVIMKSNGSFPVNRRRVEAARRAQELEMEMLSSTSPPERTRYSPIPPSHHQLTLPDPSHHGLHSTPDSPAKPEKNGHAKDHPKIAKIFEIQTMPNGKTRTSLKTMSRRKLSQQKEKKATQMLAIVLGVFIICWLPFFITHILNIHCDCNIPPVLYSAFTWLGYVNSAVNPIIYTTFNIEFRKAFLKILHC

Take “βarrestin1-SUMO1: rat βarrestin1 polypeptide fused to human SUMO1 (SEQ ID NO:2)”: in the assay with β2AR [1], the “association with β2AR by BRET ratio” value was “significantly more binding”. Besides, the “colocalization of βarrestin1 constructs with β2AR (confocal)” value in the assay with β2AR [2] (HEK-293 cells, isoproterenol) is recorded as “strong colocalization”. Further, the “association with GCGR by BRET” value in the assay with glucagon receptor (GCGR) is “significantly more binding”.
Consider “βarrestin1: wild-type rat βarrestin1 (SEQ ID NO:4), used as comparator [reference compound]”, for which the “association with β2AR by BRET ratio” value in the assay with β2AR [1] is reported as “weak association”. The “association with GCGR by BRET” value with glucagon receptor (GCGR) is reported as “weak association”.
Consider “βarrestin2: wild-type rat βarrestin2 (SEQ ID NO:3), tagged, used as comparator [reference compound]”, for which, in assay [3], the “association with D1R after dopamine activation (confocal)” value is reported as “weak association”. Further, in the assay with RanGAP1 [4], the “colocalization with endogenous RanGAP1 at the nuclear envelope” value is recorded as “Minimal colocalization”. For the same molecule, the “colocalization / complexes with β2AR after agonist activation (confocal)” value in the assay with β2AR [2] (HEK-293 cells with stable β2AR expression, agonist up to 20 minutes) is listed as “no colocalization was detected”. Moreover, in the assay on RanGAP1 [5], the “increase of unmodified RanGAP1 band (approximately 70 kDa) versus vector transfected cells” value came to 50%. Besides, the “stability of association with activated D2R (confocal)” value in the assay with D2R is “not stable”.

B1: βarrestin2-K296R: rat βarrestin2 with lysine-296 of the canonical SUMOylation site mutated to arginine (protein)
chain: MGEKPGTRVFKKSSPNCKLTVYLGKRDFVDHLDKVDPVDGVVLVDPDYLKDRKVFVTLTCAFRYGREDLDVLGLSFRKDLFIATYQAFPPMPNPPRPPTRLQDRLLKKLGQHAHPFFFTIPQNLPCSVTLQPGPEDTGKACGVDFEIRAFCAKSIEEKSHKRNSVRLIIRKVQFAPETPGPQPSAETTRHFLMSDRRSLHLEASLDKELYYHGEPLNVNVHVTNNSAKTVKKIRVSVRQYADICLFSTAQYKCPVAQLEQDDQVSPSSTFCKVYTITPLLSDNREKRGLALDGQLRHEDTNLASSTIVKEGANKEVLGILVSYRVKVKLVVSRGGDVSVELPFVLMHPKPHDHITLPRPQSAPREIDIPVDTNLIEFDTNYATDDDIVFEDFARLRLKGMKDDDCDDQFC
modifications: left off: large carriers
On to B1, for which, in the assay with SUMO1, the “SUMOylation compared with rat βarrestin2 (WT)” value is on record as “significantly decreased but not eliminated”.
